# Laboratory results reported in patent US9157067B2, “Pluripotent cells from mammalian late epiblast layer” (priority 2006, dated 2015).
# B1: Noggin: natural BMP inhibitor (protein, UniProt Q13253 28-232, looked up)
# Noggin: QHYLHIRPAPSDNLPLVDLIEHPDPIFDPKEKDLNETLLRSLLGGHYDPGFMATSPPEDRPGGGGGAAGGAEDLAELDQLLRQRPSGAMPSEIKGLEFSEGLAQGKKQRLSKKLRRKLQMWLWSQTFCPVLYAWNDLGSRFWPRYVKVGSCFSKRSCSVPEGMVCKPSKSVHLTVLRWRCQRRGGQRCGWIPIQYPIISECKCSC
# B2: FGF4: growth factor added to rat epiblast cultures (protein, UniProt P08620 31-206, looked up)
# Fibroblast growth factor 4: APTAPNGTLEAELERRWESLVALSLARLPVAAQPKEAAVQSGAGDYLLGIKRLRRLYCNVGIGFHLQALPDGRIGGAHADTRDSLLELSPVERGVVSIFGVASRFFVAMSSKGKLYGSPFFTDECTFKEILLPNNYNAYESYKYPGMFIALSKNGKTKKGNRVSPTMKVTHFLPRL
# B3: Activin: activin agonist growth factor, dimeric polypeptide stimulating the Activin/Nodal pathway (protein, UniProt P08476 311-426, looked up)
# Inhibin beta A chain: GLECDGKVNICCKKQFFVSFKDIGWNDWIIAPSGYHANYCEGECPSHIAGTSGSSLSFHSTVINHYRMRGHSPFANLKSCCVPTKLRPMSMLYYDDGQNIIKKDIQNMIVEECGCS
# Assays:
# Rat EpiSCs = assay: Oct-4 immunostaining of rat EpiSCs grown in supplemented CDM; assay type: cell-based; settings: after one week in CDM; 5B431542 10 uM; BMP4 10 ng/ml + 5B431542 10 uM; Activin 10 ng/ml + Noggin 100 ng/ml
# Protocol: hESCs, mouse ESCs or EpiSCS were fixed for 20 minutes at 4° C. in 4% paraformaldehyde (PFA) and then washed three times in PBS. Cells were incubated for 20 minutes at room temperature in PBS containing 10% goat serum (Serotec) and subsequently incubated over night at 4° C. with primary antibody diluted in 1% goat serum in PBS as follows: SSEA-3 (1:100, Santa Cruz), SSAE-1 (1:25, gift from PW Andrews), Tra-1-60 (1:100, Santa CruZ), Oct-4 (1:100, SantaCruz), Sox2 (1:100, Abeam ab15830), Nanog (1:100, Abeam), Blirnpl (Abeam). Cells were then washed three times in PBS and incubated with fluorescein-Isothiocyanate-conjugated anti-mouse IgG or IgM (Sigma 1:200 in 1% goat serum in PBS) or rat IgM (Jackson laboratory 1:300 in goat serum in PBS) or rabbit IgG (Jackson laboratory 1:200 in donkey serum in PBS) for two hours at room temperature. Unbound secondary antibody was removed by 3 washes in PBS. Hoechst 33258 was added to the first wash (Sigma 1:10000).
# Rat EpiSCs were grown in CDM supplemented in the presence of Activin (10 ng/ml), 5B431542 (10 uM), BMP4 10 ng/ml+5B431542 (10 uM) or Activin (10 ng/ml)+Noggin (IOOng/ml). After one week, the expression of the pluripotency marker Oct-4 was analysed using immunostaining. […] Similar results were obtained with mouse EpiSCs.
# rat epiblast layers = assay: Derivation of EpiSC lines from rat epiblast layers; assay type: cell-based
# Source text: The hypothesis that Activin and FGF signalling in pluripotency are conserved in mammalian development is supported by the ability of Activin/Nodal signalling to maintain long-term pluripotency of both human ESCs and mouse EpiSCs. As a further test of this hypothesis, we attempted to derive EpiSCs from rats, a species from which embryonic stem cell derivation has been problematic. Following the method we established in the mouse, epiblast layers were dissected from rat embryos at pre-gastrula stages (E 7.5-8.5) and grown on fibronectin-coated or FBS coated plates in CDM supplemented with Activin and FGF. […] Nevertheless, four EpiSC lines were derived out of 14 embryos of the Wistar strain and 1 EpiSC line was derived out of 20 embryos from the Sprague-Dawley strain using CDM supplemented with Activin alone.
# [1] = Rat Sprague-Dawley, 8.5 d.p.c, 37° C., fibro
molecule,measurement,setting,value
B1,expression of the pluripotency marker Oct-4,Rat EpiSCs,did not decrease expression of Oct-4
B2,differentiation of early epiblast cultures,rat epiblast layers; addition to CDM supplemented with Activin,induced differentiation
B3,Lines derived,rat epiblast layers; [1],1
same,Rate %,rat epiblast layers; [1],5%
same,Rate %,"rat epiblast layers; Rat Water (Wistar), 8.5 d.p.c, 38° C., FCS",35%
